Biological target: 5-IAF-labeled p53-TAD A63C mutant (UniProt P04637)
Experiment: fluorescence polarisation

For “FOXO4 Forkhead DNA-binding domain (FOXO4-DBD, residues 86-211) (from UniProt P98177 86-211) (domain or fragment)”, the Kd was 42 µM.
